Results on one molecule are retold here after article PMC3514405.

For the data set, the target named is BLV nucleocapsid protein (NC) (Bovine leukemia virus, UniProt P03344). The data set can be described thus: ITC. (In general: In ITC the heat of successive injections is recorded.)
Chain of BLV nucleocapsid protein (NC) (P03344 324-392, tags left off): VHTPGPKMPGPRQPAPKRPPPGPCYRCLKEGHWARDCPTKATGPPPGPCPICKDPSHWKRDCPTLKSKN

B1: SLV-VI linker (10 nt) (ssRNA)
RNA: CAACUCUCUG
The Kd is the equilibrium constant for the complex coming apart. For B1, the Kd stood at 92 ± 16 nM.
